Laboratory results taken from patent US9625458B2, “Biosensor” (priority 2002, dated 2017).
Where a chain is given by its changes, count along the chain named. Numbers in names are those of the source.

B1: phosphate BP S39C JPW4045 (conjugate, UniProt P0AG82 26-346, looked up, variant S39C)
Phosphate-binding protein PstS: EASLTGAGATFPAPVYAKWADTYQKETGNKVNYQGIGSCGGVKQIIANTVDFGASDAPLSDEKLAQEGLFQFPTVIGGVVLAVNIPGLKSGELVLDGKTLGDIYLGKIKKWDDEAIAKLNPGLKLPSQNIAVVRRADGSGTSFVFTSYLAKVNEEWKNNVGTGSTVKWPIGLGGKGNDGIAAFVQRLPGAIGYVEYAYAKQNNLAYTKLISADGKPVSPTEENFANAAKGADWSKTFAQDLTNQKGEDAWPITSTTFILIHKDQKKPEQGTEVLKFFDWAYKTGAKQANDLDYASLPDSVVEQVRAAWKTNIKDSSGKPLY
modifications: JPW4045 dye conjugate
B2: phosphate BP S39C Fluorescein (conjugate, UniProt P0AG82 26-346, looked up, variant S39C)
Phosphate-binding protein PstS: B1 Phosphate-binding protein PstS
modifications: fluorescein conjugate
B3: phosphate BP S39C NBD (conjugate, UniProt P0AG82 26-346, looked up, variant S39C)
Phosphate-binding protein PstS: B1 Phosphate-binding protein PstS
modifications: NBD dye conjugate
B4: phosphate BP S39C Acrylodan (conjugate, UniProt P0AG82 26-346, looked up, variant S39C)
Phosphate-binding protein PstS: B1 Phosphate-binding protein PstS
modifications: acrylodan conjugate
B5: ribose BP A234C JPW4039 (conjugate, UniProt P02925 26-296, looked up, variant A234C)
Ribose import binding protein …: KDTIALVVSTLNNPFFVSLKDGAQKEADKLGYNLVVLDSQNNPAKELANVQDLTVRGTKILLINPTDSDAVGNAVKMANQANIPVITLDRQATKGEVVSHIASDNVLGGKIAGDYIAKKAGEGAKVIELQGIAGTSAARERGEGFQQAVAAHKFNVLASQPADFDRIKGLNVMQNLLTAHPDVQAVFAQNDEMALGALRALQTAGKSDVMVVGFDGTPDGEKAVNDGKLAATICQLPDQIGAKGVETADKVLKGEKVQAKYPVDLKLVVKQ
modifications: JPW4039 dye conjugate
B6: ribose BP D165C Acrylodan (conjugate, UniProt P02925 26-296, looked up, variant D165C)
Ribose import binding protein …: B5 Ribose import binding protein … with D165C, C234A
modifications: acrylodan conjugate
B7: ribose BP T135C JPW4042 (conjugate, UniProt P02925 26-296, looked up, variant T135C)
Ribose import binding protein …: B5 Ribose import binding protein … with T135C, C234A
modifications: JPW4042 dye conjugate
B8: ribose BP L265C JPW4045 (conjugate, UniProt P02925 26-296, looked up, variant L265C)
Ribose import binding protein …: B5 Ribose import binding protein … with C234A, L265C
modifications: JPW4045 label
B9: ribose BP E192C NBD (conjugate, UniProt P02925 26-296, looked up, variant E192C)
Ribose import binding protein …: B5 Ribose import binding protein … with E192C, C234A
modifications: NBD dye conjugate
B10: ribose BP D165C JPW4042 (conjugate, UniProt P02925 26-296, looked up, variant D165C)
Ribose import binding protein …: B5 Ribose import binding protein … with D165C, C234A
modifications: JPW4042 dye conjugate
B11: ribose BP T135C Acrylodan (conjugate, UniProt P02925 26-296, looked up, variant T135C)
Ribose import binding protein …: B5 Ribose import binding protein … with T135C, C234A
modifications: acrylodan conjugate
B12: ribose BP L265C JPW4039 (conjugate, UniProt P02925 26-296, looked up, variant L265C)
Ribose import binding protein …: B5 Ribose import binding protein … with C234A, L265C
modifications: JPW4039 label
B13: ribose BP D165C JPW4045 (conjugate, UniProt P02925 26-296, looked up, variant D165C)
Ribose import binding protein …: B5 Ribose import binding protein … with D165C, C234A
modifications: JPW4045 label
B14: ribose BP L236C JPW4045 (conjugate, UniProt P02925 26-296, looked up, variant L236C)
Ribose import binding protein …: B5 Ribose import binding protein … with C234A, L236C
modifications: JPW4045 dye label
B15: ribose BP L236C NBD (conjugate, UniProt P02925 26-296, looked up, variant L236C)
Ribose import binding protein …: B5 Ribose import binding protein … with C234A, L236C
modifications: NBD label
B16: ribose BP L236C JPW4042 (conjugate, UniProt P02925 26-296, looked up, variant L236C)
Ribose import binding protein …: B5 Ribose import binding protein … with C234A, L236C
modifications: JPW4042 dye conjugate
B17: ribose BP E192C Fluorescein (conjugate, UniProt P02925 26-296, looked up, variant E192C)
Ribose import binding protein …: B5 Ribose import binding protein … with E192C, C234A
modifications: fluorescein label
B18: ribose BP D165C JPW4039 (conjugate, UniProt P02925 26-296, looked up, variant D165C)
Ribose import binding protein …: B5 Ribose import binding protein … with D165C, C234A
modifications: JPW4039 dye conjugate
B19: ribose BP L265C JPW4042 (conjugate, UniProt P02925 26-296, looked up, variant L265C)
Ribose import binding protein …: B5 Ribose import binding protein … with C234A, L265C
modifications: JPW4042 label
B20: ribose BP A234C JPW4042 (conjugate, UniProt P02925 26-296, looked up, variant A234C)
Ribose import binding protein …: B5 Ribose import binding protein …
modifications: JPW4042 dye conjugate
B21: ribose BP E192C JPW4039 (conjugate, UniProt P02925 26-296, looked up, variant E192C)
Ribose import binding protein …: B5 Ribose import binding protein … with E192C, C234A
modifications: JPW4039 dye label
B22: ribose BP L265C Acrylodan (conjugate, UniProt P02925 26-296, looked up, variant L265C)
Ribose import binding protein …: B5 Ribose import binding protein … with C234A, L265C
modifications: acrylodan conjugate
B23: ribose BP L265C NBD (conjugate, UniProt P02925 26-296, looked up, variant L265C)
Ribose import binding protein …: B5 Ribose import binding protein … with C234A, L265C
modifications: NBD dye conjugate
B24: ribose BP T135C Fluorescein (conjugate, UniProt P02925 26-296, looked up, variant T135C)
Ribose import binding protein …: B5 Ribose import binding protein … with T135C, C234A
modifications: fluorescein conjugate
B25: ribose BP A234C Acrylodan (conjugate, UniProt P02925 26-296, looked up, variant A234C)
Ribose import binding protein …: B5 Ribose import binding protein …
modifications: acrylodan label
B26: ribose BP L236C Fluorescein (conjugate, UniProt P02925 26-296, looked up, variant L236C)
Ribose import binding protein …: B5 Ribose import binding protein … with C234A, L236C
modifications: fluorescein conjugate
B27: ribose BP L236C JPW4039 (conjugate, UniProt P02925 26-296, looked up, variant L236C)
Ribose import binding protein …: B5 Ribose import binding protein … with C234A, L236C
modifications: JPW4039 dye conjugate
B28: ribose BP A234C NBD (conjugate, UniProt P02925 26-296, looked up, variant A234C)
Ribose import binding protein …: B5 Ribose import binding protein …
modifications: NBD conjugate
B29: ribose BP T135C NBD (conjugate, UniProt P02925 26-296, looked up, variant T135C)
Ribose import binding protein …: B5 Ribose import binding protein … with T135C, C234A
modifications: NBD dye conjugate

assay: Fluorescence emission spectra without and with saturating ligand (wavelength shift, ΔIstd, ΔRmax); parameters: key to ΔIstd: intensity change at λstd normalized to average intensity; key to ΔRmax: ratio change of two emission band areas, unbound vs saturated; conditions: standard intensity change, unbound vs ligand-saturated
Description: Fluorimetry. All measurements were conducted with an SLM Aminco-Bowman series 2 fluorimeter, with sample stirring at 25° C. Fluorescence emission spectra were acquired with excitation and emission slit widths of 4 and 8 nm, respectively. Photomultiplier tube potential was maintained between 400 and 800 volts. Protein concentrations were in the range of 50 to 1000 nM. Fluorophore-specific excitation was at the following approximate wavelengths: tryptophan, 290 nm; acrylodan, 390 nm; fluorescein, 485 nm; pyrene, 340 nm; NBD and NBDE, 490 nm; JPW4039, 485 nm; JPW4042, 470 nm; JPW4045, 470 nm.
Assessment of fluorescent biosensor function. Fluorescence emission spectra of bPBP-fluorophore conjugates were recorded in the absence and presence of saturating ligand concentrations. Spectral changes were characterized by four parameters: wavelength shift (the difference between the wavelengths of emission maximum in the unbound and ligand-saturated states), direction of intensity change (increase or decrease in intensity at the wavelengths of maximum emission in the two states), standard intensity change (ΔIstd), and standard ratiometric change (ΔR). ΔIstd is defined as the normalized intensity change relative to the average intensity, determined at the wavelength mid-point between the two emission maxima:
[formula] where λstd=(λmax, unbound+λmax, saturated)/2 and I1, I2 are the fluorescence intensities at λstd of each spectrum respectively (FIG. 4A). ΔR is defined in terms of two emission bands, A1 ([λ1, λ2]) and A2 ([λ3, λ4]) (FIG. 4B):
[formula] where ^∘A1, […] the areas in the absence of ligand, and ^∞A1, ^∞A2 the areas in the presence of saturating ligand. A computer program was used to enumerate ΔR for all possible pairs of wavelength bands in the two spectra, to identify the optimal sensing condition, defined as the maximum value of ΔR. Adjustable parameters of the algorithm, and their values used for ΔRmax quantities reported here, are: step size (2 nm), step width (10 nm), minimum integration area limit (fraction of total: 0.1), and maximum integration area limit (fraction of total: 1).

In order of rising ΔIstd:
1. B6  0.00
2. B9  0.00
3. B12  0.01
4. B23  0.01
5. B25  0.01
6. B7  0.02
7. B8  0.02
8. B26  0.02
9. B2  0.03
10. B13  0.04
11. B10  0.06
12. B20  0.06
13. B27  0.08
14. B29  0.08
15. B4  0.10
16. B15  0.11
17. B17  0.12
18. B18  0.13
19. B1  0.18
20. B3  0.18
21. B24  0.18
22. B22  0.20
23. B14  0.25
24. B28  0.28
25. B11  0.31
26. B5  0.37
27. B21  0.44
28. B16  0.55
29. B19  0.91

same assay, conditions: standard ratiometric change, unbound vs ligand-saturated

In order of rising ΔRmax:
1. B12  0.11
2. B8  0.12
3. B23  0.13
4. B2  0.21
5. B29  0.22
6. B10  0.27
7. B26  0.29
8. B27  0.29
9. B21  0.34
10. B7  0.35
11. B18  0.36
12. B6  0.37
13. B3  0.57
14. B22  0.70
15. B13  0.77
16. B4  0.80
17. B20  0.99
18. B25  1.18
19. B5  1.29
20. B17  1.31
21. B28  1.63
22. B9  1.67
23. B14  1.70
24. B24  1.79
25. B15  1.96
26. B19  2.13
27. B16  3.58
28. B1  4.13
29. B11  6.26
